Publication PMC8860598
Positions count from the first letter of the chain named. Read-outs that look alike come from different tables or passages of the source.

Columns and labels:
Assay in all cases: EMSA
Sen1 HD T1623V [1] = biological target: T1, Sen1 HD T1623V (Saccharomyces cerevisiae, UniProt Q00416 1095-1905, T1623V)
T1 sequence: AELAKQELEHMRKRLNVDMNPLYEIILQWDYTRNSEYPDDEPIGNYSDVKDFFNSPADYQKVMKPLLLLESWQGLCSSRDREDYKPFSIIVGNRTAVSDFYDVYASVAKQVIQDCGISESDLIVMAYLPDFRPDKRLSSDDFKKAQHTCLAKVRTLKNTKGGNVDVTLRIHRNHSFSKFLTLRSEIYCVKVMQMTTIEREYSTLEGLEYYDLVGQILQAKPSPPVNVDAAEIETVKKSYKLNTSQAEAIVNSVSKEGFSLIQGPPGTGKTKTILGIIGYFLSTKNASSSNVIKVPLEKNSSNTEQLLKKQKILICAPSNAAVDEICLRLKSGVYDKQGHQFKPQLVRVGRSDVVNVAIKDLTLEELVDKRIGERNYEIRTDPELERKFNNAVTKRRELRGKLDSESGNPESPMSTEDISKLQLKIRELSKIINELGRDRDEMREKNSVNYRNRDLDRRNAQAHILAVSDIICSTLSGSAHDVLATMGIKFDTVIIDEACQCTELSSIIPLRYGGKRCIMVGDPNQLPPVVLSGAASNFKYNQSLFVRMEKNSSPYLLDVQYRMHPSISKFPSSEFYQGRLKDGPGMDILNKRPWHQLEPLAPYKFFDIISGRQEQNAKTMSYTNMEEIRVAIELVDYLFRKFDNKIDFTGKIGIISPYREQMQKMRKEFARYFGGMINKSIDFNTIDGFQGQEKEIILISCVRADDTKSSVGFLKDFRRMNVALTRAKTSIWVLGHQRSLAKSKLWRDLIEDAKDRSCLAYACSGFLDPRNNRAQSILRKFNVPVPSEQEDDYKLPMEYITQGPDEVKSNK

Sen1 HD wt [2] = biological target: T2, Sen1 HD wt (Saccharomyces cerevisiae, UniProt Q00416 1095-1905)
T2 sequence: T1 sequence with V529T

Sen1 HD T1623E = biological target: T3, Sen1 HD T1623E (Saccharomyces cerevisiae, UniProt Q00416 1095-1905, T1623E)
T3 sequence: T1 sequence with V529E

Sen1 HD T1623V [3] = biological target: T1, Sen1 HD T1623V; remark: listed apart in the source
Sen1 HD wt [4] = biological target: T2, Sen1 HD wt; remark: listed apart in the source

UUCAUUUCAGACCAGCACCCACUCACUACAACUCACGACCAGGC (ssRNA) [DL3508 (called 40-mer RNA; printed sequence is 44 nt)] gave a Kd (Sen1 HD T1623V [1]) of 8.1 nM, a Kd (Sen1 HD wt [2]) of 6.4 nM and a Kd (Sen1 HD T1623E) of 100 nM. For the same binder, the Kd (Sen1 HD T1623V [3]) was 12.7 nM and the Kd (Sen1 HD wt [4]) was 13.1 nM.
